From paper PMC12559329

Molecular target: MutSβ (MSH2-MSH3) (human, UniProt P43246;P20585 1-934;1-1137)
Assay: EMSA; 2 mM ATP, 5 mM Mg2+, pUC19 competitor; 25 mM Tris-acetate pH 7.5, 1 mM DTT, 2 mM ATP, 5 mM MgCl2, 0.1 mg/ml albumin, 0.5 nM DNA, 3 ng/µl pUC19 competitor, 37 °C 30 min; native 6% PAGE
Conditions: protein: recombinant, tags: N-terminal FLAG on MSH2, N-terminal 6xHis on MSH3, copies: 1;1, label: 3'-32P on bottom strand (TdT, dCTP), 5' overhang 1 nt (G) on bottom

B1: (CAG)4 loop DNA (dsDNA)
DNA 1: ACGTCAGAGTCGCTGCGCTCAGTCGTTCAACTGCTCAGCAGCAGCAGTAACTATCGTCTTGAATCCAACCCGGTAAGATACG
DNA 2: GCGTATCTTACCGGGTTGGATTCAAGACGATAGTTAAGCAGTTGAACGACTGAGCGCAGCGACTCTGACGT
modifications: biotin on both strands (position in bold, not recoverable)
binding result (12-nt extrahelical (CAG)4 loop in top strand): binds

B2: (CAG)4 loop DNA with nick 3 nt downstream of loop (dsDNA)
DNA 1: ACGTCAGAGTCGCTGCGCTCAGTCGTTCAACTGCTCAGCAGCAGCAGTAA
DNA 2: TAACTATCGTCTTGAATCCAACCCGGTAAGATACG
DNA 3: B1 DNA 2
modifications: biotin on bottom strand; others unclear (bold lost)
binding result (12-nt loop and nick in top strand, as printed both left and right oligos contain the TAA at the junction (3 nt redundant)): binds
